Data taken from patent US6861508B2, “Transcriptional intermediary factor-2” (Institut National de la Sante et de la Recherche Medicale, priority 1996, dated 2005).

Tests used:
RARα LBD = test: yeast PL3 (ERE)3-URA3 reporter, OMP decase activity, RARα; format: cell-based, human; conditions: absence of ligand
Excerpt: (§1) FIG. 11. The TIF2.1 coactivator fragment efficiently stimulates the ligand-dependent AF-2 of ER, RAR and RXR in yeast. No stimulatory effect of TIF2.1 on the isolated AF-1 of ER (HE15) is observable. Plasmids expressing different regions of hERα (white), hRARα (grey) and mRXRα (black) fused to the ER DBD (hERα(C)) were introduced into the yeast reporter strain PL3 (α) together with TIF2.1 as indicated. […] OMP decase activities determined on each cell-free extract are expressed in nmoyrnin/mg protein; the mean and standard deviation of at least four experiments are shown.
(§2) We therefore investigated whether TIF2 could enhance transcriptional activation by various NR constructs expressed in S. cerevisiae. Both, NRs and TIF2.1 were expressed from multicopy plasmids in the yeast strain PL3 (a), which contains a URA3 reporter gene under the control of three estrogen response elements ((ERE)3-URA3; Pierrat, B. et al., Gene 119:237-245 (1992)).
(§3) In yeast, the hERa constructs were expressed from the following YEp90-based plasmids: HEGO (hERα, YEp90-HEGO, amino acids 1-595), HE15 (YEp90-HE15, amino acids 1-282), and HEG19 (YEp90-HEG19, amino acids 179-595) (all Pierrat, B. et al., Gene 119:237-245 (1992)), HE179-338 (YEp90-HE179-338; Pierrat, B. et al., Gene 143:193-200 (1994)). […]

[1] = system: CBP (residues 1872 to 2165); test: GST-CBP pull-down of TIF2 polypeptides; format: binding
Procedure: (d) Mapping of the CBP-interacting domain of TIF2. GST puld own experiments were performed with ^35S-labeled in-vitro-translated TIF2 polypeptides and bacterially produced GST and GST-CBP (expressing CBP residues 1872 to 2165).
(c) Interaction of TIF2 AF-1 mutants with CBP in vitro. GST pull-down experiments were performed with ^35S-labeled in-vitro-translated GAL-TIF2 fusion proteins and bacterially produced GST and GST-CBP.
(c) Interaction of TIF2.13 wildtype and TIF2.13 mutants with CBP in vitro. GST pull-down experiments were performed with ^35S-labeled in-vitro-translated VP16-TIF2.13 polypeptides and bacterially produced GST and GST-CBP.
(§4) Furthermore, it was reported that SRC-1, which belongs to the same gene family as TIF2, interacts with CBP and p300 (Kamei, Y. et al., Cell 85:403-414 (1996); Yao, T. P. et al., Proc. Natl. Acad. Sci. USA 93:10626-10631 (1996); Hanstein, B., et al., Proc. Natl. Acad Sci USA 93:11540-11545 (1996)). Using GST-fusion protein-based interaction and animal cell-based two hybrid assays, we therefore analyzed whether TIF2 could also interact with CBP. […] A GST-CBP fusion protein was expressed in E. coli and used for puU-down assays with in vitro translated TIF2 polypeptides (FIG. 7d).

GAL4 reporter = test: GAL4 DBD-TIF2 fusion CAT reporter transactivation assay; format: cell-based; conditions: Cos-1 and/or HeLa cells
Procedure: (a) HeLa cells were cotransfected with 1 μg (17m)5-βG-CAT and 10 μg GAL(1-147) or 1,3 and 10 μg GAL(1-147)-TIF2.1, respectively.
(c) Analysis of the transcriptional activity of GAL-TIF2 fusion proteins. Cos-1 and HeLa cells were transfected with 3 lag of plasmids expressing different regions of TIF2 fised to the DNA-binding domain of the yeast transcription factor GALA together with 1 μg of the (7m)5-G-CAT reporterplasmid. CAT assays were performed as described (Bocquel, M. T. et al., Nucl Acids Res. 17:2581-2595 (1989)). Quantitative data on CAT reporter expression were obtained either by phosphoimager analysis (BAS2000, Fuji) of ^14C-labeled CAT reaction products separated by thin-layer chromatography, or using the CAT ELISA Kit (Boehringer Mannheim). In all cases, CAT activities were normalized to the β-galactosidase concentrations resulting from cotransfection of 1 μg of pCMVPGal (gift from T. Lerouge) as internal control. Fold inductions above the GAL4 DBD value are indicated. The mean and standard deviation of at least three experiments are shown. A representative Western blot, illustrating the expression levels of the GAL4-TIF2 fusion proteins, expressed from 10 μg of the corresponding expression vectors, is shown on the left.
(b) Transcriptional activation of TIF2 AF-1 mutants. Cos-1 and HeLa cells were cotransfected with 3 μg of plasmids expressing different mutants of the TIF2 AF-1 fused to the DNA-binding domain of the yeast transcription factor GAL4 together with 1 μg of the (17m)5-G-CAT reporter plasmid. Fold inductions above the activation seen with the GAL4 DBD alone are indicated. The values represent the mean of at least three experiments.
(a) Transcriptional activation by TIF2.13 and TIF2.13 mutants. Cos-1 and HeLa cells were cotransfected with 3 μg of plasmids expressing the TIF2.13 region and the indicated TIF2.13 mutants fused to the DNA-binding domain of the yeast transcription factor GALA together with 1 μg of the (17m)5-G-CAT reporter plasmid. Fold inductions above the GAL4 DBD 1-fold value are indicated. The mean and standard deviation obtained from at least four experiments are shown. The expression levels of the GAL4-TIF2.13 fusion proteins were confirmed by western blotting (data not shown).
Transient transfections of HeLa and Cos-1 cells were performed as described (Gronemeyer et al., (1987); Bocquel, M. T. et al., Nucl. Acids Res. 17:2581-2595 (1989)).

GAL-CBP = test: two hybrid analysis of CBP-TIF2 interaction in HeLa cells; format: cell-based
Procedure: (e) Two hybrid analysis of the CBP-TIF2 interaction in mammalian cells in vivo. HeLa cells were transfected with 0.2 μg of the GAL4 or GALA-CBP (expressing CBP residues 1872 to 2165) expression vectors together with 0.2 μg of the VP16 or VPI6-TF2 expression vectors in the presence of 2 μg of (17m)5-TATA-CAT reporter plasmid. Fold induction relative to the GAL-CBP activity is indicated. The mean of three experiments is shown; in each case, values varied by less than ±20%.
HeLa cells were transfected with 0.2 μg of GAL4 or GAL-CBP expression vectors together with 0.2 μg of VP16 or VP16-TIF2.13 expression vectors in the presence of 1 μg of (17m)5-TATA-CAT reporter plasmid. Data are represented as fold induction of the activity seen with GAL-CBP alone. The mean and standard, deviation obtained from ten experiments are shown. The expression levels were confirmed by Western blotting with antibodies directed against GAL4 DBD and VP16 AAD (data not shown).
as §4

RXRα AF-2 = test: yeast PL3 (ERE)3-URA3 reporter, OMP decase activity, RXRα; format: cell-based, mouse; conditions: with ligand
Excerpt: as §1, §2, §3

histone = histone acetylase activity of purified TIF2 fragments; format: biochemical; conditions: bacterially-expressed purified fragment
Excerpt: TIF2 can apparently fulfill at least two mediator functions, (i) as a “bridging factor” between the AF-2 function of nuclear receptors and CBP via its AD1 activation domain and (ii) as a transcriptional mediator through as yet unknown CBP binding-independent route(s) via its AD2 function.

ER (HEGO) = test: yeast PL3 (ERE)3-URA3 reporter, OMP decase activity, ER; format: cell-based, human; conditions: with estradiol
Excerpt: as §1, §2, §3

B1: TIF2.1: cytoplasmic TIF2 coactivator fragment, amino acids 624 to 1287 of SEQ ID NO:2 (protein)
chain: ERADGQSRLHDSKGQTKLLQLLTTKSDQMEPSPLASSLSDTNKDSTGSLPGSGSTHGTSLKEKHKILHRLLQDSSSPVDLAKLTAEATGKDLSQESSSTAPGSEVTIKQEPVSPKKKENALLRYLLDKDDTKDIGLPEITPKLERLDSKTDPASNTKLIAMKTEKEEMSFEPGDQPGSELDNLEEILDDLQNSQLPQLFPDTRPGAPAGSVDKQAIINDLMQLTAENSPVTPVGAQKTALRISQSTFNNPRPGQLGRLLPNQNLPLDITLQSPTGAGPFPPIRNSSPYSVIPQPGMMGNQGMIGNQGNLGNSSTGMIGNSASRPTMPSGEWAPQSSAVRVTCAATTSAMNRPVQGGMIRNPAASIPMRPSSQPGQRQTLQSQVMNIGPSELEMNMGGPQYSQQQAPPNQTAPWPESILPIDQASFASQNRQPFGSSPDDLLCPHPAAESPSDEGALLDQLYLALRNFDGLEEIDRALGIPELVSQSQAVDPEQFSSQDSNIMLEQKAPVFPQQYASQAQMAQGSYSPMQDPNFHTMGQRPSYATLRMQPRPGLRPTGLVQNQPNQLRLQLQHRLQAQQNRQPLMNQISNVSNVNLTLRPGVPTQAPINAQMLAQRQREILNQHLRQRQMHQQQQVQQRTLMMRGQGLNMTPSMVAPSGMPATMS
With B1 the “effect on transactivation by RARα LBD” value (RARα LBD) was “very efficiently enhanced”, the “binding to GST-CBP in vitro” value [1] was “also interacted with GST-CBP” and the “transcriptional activation of GAL4 reporter by GAL4 DBD fusion” value (GAL4 reporter) was “strongly transactivated”. The “interaction with GAL-CBP, two hybrid” value (GAL-CBP) was “scored positive”, the “effect on AF-2 activity of liganded RXRα” value (RXRα AF-2) was “stimulated” and the histone acetylase activity (histone) was “none”. For the same molecule, the “effect on transcriptional activity of ER” value (ER (HEGO)) was “further enhanced”.
